Measurements as given in patent US20110263454A1, “Methods of Identifying Functional Characteristics of Promoters, Transcription Modifying Proteins and Transcription Modulating Agents” (Salk Institute for Biological Studies, priority 2008, published 2011).

Tests used:
[1] = tested on: mAdiponectin promoter; experiment: NHR-promoter luciferase screen, mAdiponectin promoter; format: cell-based, mouse; details: for Luc. act., normalized to lacZ / Normalized Luc. act., normalized to control: Adiponectin, HR component without or with its ligand; for mAdiponectin promoter reporter activity: transcription factor +/- ligand, control = 1.00
Method in brief: (§1)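 CV-1 cells were co-transfected with 50 ng NHR (homodimer or NHR/RXR heterodimer), 100 ng promoter-luciferase construct and 50 ng LacZ. Luciferase was normalized to LacZ and to a no-NHR/no-ligand control.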

[2] = tested on: hG6PD promoter; experiment: NHR-promoter luciferase screen, hG6PD promoter; format: cell-based, human; details: for Luc. act., normalized to lacZ / Normalized Luc. act., normalized to control: G6PD promoter reporter, co-transfected HR, without or with its ligand; for Normalized Luc. act., normalized to control: relative to control; for luciferase activity normalized to lacZ activity and to a control, hG6PD: hG6PD promoter-luciferase, CV-1 cells, NHR +/- ligand, control = 1.00
Method in brief: as §1

[3] = tested on: mPgc1b promoter; experiment: NHR-promoter luciferase screen, mPgc1b promoter; format: cell-based, mouse; details: for Luc. act., normalized to lacZ / Normalized Luc. act., normalized to control: PGC1b promoter reporter, co-transfected HR, without or with its ligand; for Normalized Luc. act., normalized to control: relative to control; for luciferase activity normalized to lacZ activity and to a control, mPgc1b: mPgc1b promoter-luciferase, CV-1 cells, NHR +/- ligand, control = 1.00
Method in brief: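 Luciferase reporter read-out after co-expression in CV-1 cells of V5H6-tagged receptor (alone or with RXR), the promoter construct and LacZ. Values are luciferase/LacZ relative to a control lacking NHR or ligand; orphan receptors tested ligand-free.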

[4] = tested on: hPPARg1 promoter; experiment: NHR-promoter luciferase screen, hPPARg1 promoter; format: cell-based, human; details: for Luc. act., normalized to lacZ / Normalized Luc. act., normalized to control: PPARG1 promoter, hormone receptor with or without its ligand; for Normalized Luc. act., normalized to control: relative to control; for Results of assays of transcription factor (+/- ligand) with hPPARg1: Table 6d, luciferase activity relative to control (control = 1.00)
Method in brief: as §1

[5] = tested on: hIRF7 promoter; experiment: NHR-promoter luciferase screen, hIRF7 promoter; format: cell-based, human; details: for Normalized Luc. act., normalized to control / Luc. act., normalized to lacZ: IRF7 promoter reporter; for Normalized Luc. act., normalized to control: HR without or with its ligand, relative to control; for Luc. act., normalized to lacZ: hormone receptor (HR) without or with its ligand; for hIRF7 promoter reporter activity: transcription factor +/- ligand, control = 1.00
Method in brief: as §1

[6] = tested on: hPPARg2 promoter; experiment: NHR-promoter luciferase screen, hPPARg2 promoter; format: cell-based, human; details: for Luc. act., normalized to lacZ / Normalized Luc. act., normalized to control: PPARG2 promoter, hormone receptor with or without its ligand; for Normalized Luc. act., normalized to control: relative to control; for Results of assays of transcription factor (+/- ligand) with hPPARg2: Table 6d, luciferase activity relative to control (control = 1.00)
Method in brief: as §1

B1: CTF3: COUP-TF3 (NR2F6), cDNA driver (protein, UniProt P10588 1-404, looked up)
Nuclear receptor subfamily 2 …: MAMVTGGWGGPGGDTNGVDKAGGYPRAAEDDSASPPGAASDAEPGDEERPGLQVDCVVCGDKSSGKHYGVFTCEGCKSFFKRSIRRNLSYTCRSNRDCQIDQHHRNQCQYCRLKKCFRVGMRKEAVQRGRIPHSLPGAVAASSGSPPGSALAAVASGGDLFPGQPVSELIAQLLRAEPYPAAAGRFGAGGGAAGAVLGIDNVCELAARLLFSTVEWARHAPFFPELPVADQVALLRLSWSELFVLNAAQAALPLHTAPLLAAAGLHAAPMAAERAVAFMDQVRAFQEQVDKLGRLQVDSAEYGCLKAIALFTPDACGLSDPAHVESLQEKAQVALTEYVRAQYPSQPQRFGRLLLRLPALRAVPASLISQLFFMRLVGKTPIETLIRDMLLSGSTFNWPYGSGQ
B1 was tested. Which “Luc. act., normalized to lacZ” value [1] did it give?
Its value is 71.0.

And the “Normalized Luc. act., normalized to control” value [1]?
The value was 1.1.

What about the “mAdiponectin promoter reporter activity” value [1] of the same molecule?
Its value is 1.13.

What about the “Luc. act., normalized to lacZ” value [2] of the same molecule?
Its value is 32.5.

What about the “Normalized Luc. act., normalized to control” value [2] of the same molecule?
The value was 0.9.

What about the “luciferase activity normalized to lacZ activity and to a control, hG6PD” value [2] of the same molecule?
The value was 0.87.

What about the “Luc. act., normalized to lacZ” value [3] of the same molecule?
Its value is 4.9.

What about the “Normalized Luc. act., normalized to control” value [3] of the same molecule?
The value was 0.4.

What about the “luciferase activity normalized to lacZ activity and to a control, mPgc1b” value [3] of the same molecule?
The value was 0.42.

And the “Luc. act., normalized to lacZ” value [4]?
The value was 32.5.

And the “Normalized Luc. act., normalized to control” value [4]?
Its value is 0.5.

What about the “Results of assays of transcription factor (+/- ligand) with hPPARg1” value [4] of the same molecule?
The value was 0.47.

And the “Normalized Luc. act., normalized to control” value [5]?
The value was 1.0.

What about the “Luc. act., normalized to lacZ” value [5] of the same molecule?
Its value is 25.5.

And the “hIRF7 promoter reporter activity” value [5]?
The value was 0.97.

What about the “Luc. act., normalized to lacZ” value [6] of the same molecule?
The value was 1.7.

What about the “Normalized Luc. act., normalized to control” value [6] of the same molecule?
The value was 0.8.

And the “Results of assays of transcription factor (+/- ligand) with hPPARg2” value [6]?
The value was 0.85.

B2: CTF2: COUP-TF2 (NR2F2), cDNA driver (protein, UniProt P24468 1-414, looked up)
COUP transcription factor 2: MAMVVSTWRDPQDEVPGSQGSQASQAPPVPGPPPGAPHTPQTPGQGGPASTPAQTAAGGQGGPGGPGSDKQQQQQHIECVVCGDKSSGKHYGQFTCEGCKSFFKRSVRRNLSYTCRANRNCPIDQHHRNQCQYCRLKKCLKVGMRREAVQRGRMPPTQPTHGQFALTNGDPLNCHSYLSGYISLLLRAEPYPTSRFGSQCMQPNNIMGIENICELAARMLFSAVEWARNIPFFPDLQITDQVALLRLTWSELFVLNAAQCSMPLHVAPLLAAAGLHASPMSADRVVAFMDHIRIFQEQVEKLKALHVDSAEYSCLKAIVLFTSDACGLSDVAHVESLQEKSQCALEEYVRSQYPNQPTRFGKLLLRLPSLRTVSSSVIEQLFFVRLVGKTPIETLIRDMLLSGSSFNWPYMAIQ
For B2, which “Luc. act., normalized to lacZ” value [1] is on record?
The value was 75.1.

And the “Normalized Luc. act., normalized to control” value [1]?
The value was 1.2.

What about the “mAdiponectin promoter reporter activity” value [1] of the same molecule?
Its value is 1.20.

What about the “Luc. act., normalized to lacZ” value [2] of the same molecule?
The value was 43.9.

And the “Normalized Luc. act., normalized to control” value [2]?
The value was 1.2.

What about the “luciferase activity normalized to lacZ activity and to a control, hG6PD” value [2] of the same molecule?
The value was 1.17.

What about the “Luc. act., normalized to lacZ” value [3] of the same molecule?
The value was 12.2.

What about the “Normalized Luc. act., normalized to control” value [3] of the same molecule?
Its value is 1.0.

And the “luciferase activity normalized to lacZ activity and to a control, mPgc1b” value [3]?
Its value is 1.03.

And the “Luc. act., normalized to lacZ” value [4]?
Its value is 43.9.

And the “Normalized Luc. act., normalized to control” value [4]?
The value was 0.6.

What about the “Results of assays of transcription factor (+/- ligand) with hPPARg1” value [4] of the same molecule?
The value was 0.64.

What about the “Normalized Luc. act., normalized to control” value [5] of the same molecule?
The value was 1.0.

And the “Luc. act., normalized to lacZ” value [5]?
Its value is 25.6.

And the “hIRF7 promoter reporter activity” value [5]?
The value was 0.97.

And the “Luc. act., normalized to lacZ” value [6]?
The value was 1.5.

What about the “Normalized Luc. act., normalized to control” value [6] of the same molecule?
Its value is 0.8.

What about the “Results of assays of transcription factor (+/- ligand) with hPPARg2” value [6] of the same molecule?
The value was 0.76.
